Patent US20060040861A1, “Method of treating, preventing, and diagnosing prostate cancer” (priority 2004, published 2006)

How the values were obtained:
PC-3 cells = assay: MTT assay (cell growth / viability); type: cell-based, human; details: 5 days
Method: (§1) DU145 (1×10^3/well), PC-3 (1×10^3/well) and LNCaP-FGC (1.5×10^3/well) cells were seeded in 96-well plates 24 hours prior to serum starvation. Cells were starved of serum for 24 hours and then incubated in the serum-free medium with or without 12.5 μg/ml leptin for 5 days. 3-(4,5-dimethylthiazol-2-yl)-2,5-diphenyl tetrazolium bromide (MTT) was added to each well to a concentration of 0.5 mg/ml. After 3-hour incubation at 37° C., cells were lysed in 50% dimethylformamide and 20% SDS at 37° C. Optical densities (O.D.) at 550 nm and 670 nm were measured by a plate reader, and differential O.D. between 550 nm and 670 nm (O.D. 550 nm minus O.D. 670 nm) were determined. Each experiment was performed in quadruplicate, and the values are reported as mean±SD.
(§2) DU145 (0.5-1.0×10^3/well), PC-3 (0.5-1.0×10^3/well), and LNCaP FGC (0.75-1.5×10^3/well) cells were seeded in 96-well plates 24 hours prior to serum starvation. Cells were starved of serum for 24 hours and then incubated in the serum-free medium with or without cytokine(s), DHT and/or doxorubicin at indicated concentrations for 5 days. MTT was added to each well to a concentration of 0.5 mg/ml. After being incubated at 37° C. for 3 hours, cells were lysed in 50% dimethylformamide and 20% SDS at 37° C. Optical densities (OD) at 550 and 670 nm were measured by a plate reader, and differential OD between 550 and 670 nm (OD 550 minus OD 670 nm) were determined. Each experiment was performed in quadruplicate, and the values were reported as mean±S.D.

LNCaP-FGC cells = assay: MTT assay (cell growth / viability); type: cell-based, human; details: 5 days
Method: as §1, §2

JNK = assay: In vitro JNK assay on lysates of treated human cancer cells; type: cell-based
Method: Eighty-percent confluent prostate cancer cells were starved in the serum-free medium for 24 hours and then treated by 12.5 μg/ml leptin or 10 μg/ml anisomycin for the indicated periods. In some experiments, cells were pretreated with SP600125 prior to cytokine stimulation as described below. Cells were washed twice with cold PBS, harvested by a scraper and centrifuged for 10 minutes at 700×g at 4° C. The pellet was homogenized in the cell lysis buffer (20 mM HEPES, pH 7.9, 300 mM NaCl, 1 mM EDTA, 15% glycerol, 0.5% NP-40, 1 mM Na3VO4, 1 μg/ml leupeptin, 5 μg/ml aprotinin, 1 μg/ml pepstatin and 1 mM PMSF) and incubated at 4° C. with gentle rocking for 30 minutes. This homogenate was centrifuged for 5 minutes at 15,000×g, and the supernatant was saved as a cell lysate and stored at −80° C. until use.
JNK activity was measured using the SAPK/JNK Assay Kit (Cell Signaling Technology Inc.) according to the manufacture's instructions. Briefly, JNK was precipitated in 250 μl of cell lysates (250 μg protein) with 2 μg of glutathione Sepharose beads immobilized by a recombinant fusion protein of the c-Jun N-terminus (1-89) and glutathione S-transferase as a JNK substrate. After being washed with the cell lysis buffer 3 times, the precipitates were incubated in 50 μl of the kinase buffer containing 100 μM ATP at 30° C. for 30 minutes. The reaction was stopped by addition of the SDS sample buffer. The N-terminal c-Jun (1-89) fusion protein was separated by SDS-polyacrylamide gel electrophoresis, and its phoshporylation was determined by Western blot analysis using anti-phospho-c-Jun (Ser-63) polyclonal antibody as described above. JNK protein levels in cell lysates were also measured by Western blot analysis using anti-JNK antibody to normalize sample variations.
Seventy-percent confluent cells were deprived of serum for 24 hours, followed by treatment with 1 μg/ml f- or g-adiponectin or 10 μg/ml anisomycin for indicated periods. After being rinsed with cold phosphate-buffered saline, cells were harvested using a scraper and collected by centrifugation at 700×g for 10 minutes at 4° C. The cell pellets were then homogenized in cell lysis buffer (20 mM HEPES, pH 7.9, 300 mM NaCl, 1 mM Na3VO4, 1 μg/ml leupeptin, 5 μg/ml aprotinin, 1 μg/ml pepstatin, and 1 mM phenylmethylsulfonyl fluoride) and rocked gently for 30 minutes at 4° C. The homogenates were centrifuged at 15,000×g for 5 minutes at 4° C., and the supernatants were saved as cell lysates and stored at −80° C. until use.
Using the stress-activated protein kinase/JNK assay kit, JNK activity was assessed with a fusion protein of the c-Jun NH2 terminus (amino acids 1 to 89) and glutathione S-transferase as a substrate according to the manufacture's instructions with some modifications as reported before (M. Onuma, et al., supra, 2003). Briefly, JNK was precipitated in cell lysates (250-500 μg of protein) with 2 μg of glutathione-Sepharose beads immobilized by the fusion protein. The precipitates were rinsed with the cell lysis buffer three times, followed by incubation in 50 μl of the kinase buffer containing 100 μM ATP at 30° C. for 30 minutes. The reaction was terminated by adding the SDS sample buffer. The substrate fusion protein was separated by SDS-polyacrylamide gel electrophoresis, and its phosphorylation by JNK was determined by Western blot analysis using anti-phospho-c-Jun (Ser-63) polyclonal antibody. To normalize sample variations, JNK protein levels were also determined by Western blot analysis using anti-JNK antibody.

Molecule | living cells (MTT) (PC-3 cells; 12.5 μg/ml leptin, serum-free) | live cell mass (MTT) (LNCaP-FGC cells; 12.5 μg/ml leptin, serum-free) | time of peak JNK activation after addition (JNK; DU145, 12.5 μg/ml leptin) | time of return of JNK activation to the basal level (JNK; DU145, 12.5 μg/ml leptin) | JNK activity (JNK; DU145, 12.5 μg/ml leptin, up to 60 minutes) | JNK activity (JNK; LNCaP-FGC, 12.5 μg/ml leptin, up to 60 minutes) | time of peak JNK activation after addition (JNK; PC-3, 12.5 μg/ml leptin) | JNK activity (JNK; PC-3, 12.5 μg/ml leptin, up to 60 minutes) | effect on the conditioned medium stimulation of cell growth (MTT) (PC-3 cells; 1 μg/ml f-adiponectin) | effect on the doxorubicin suppression of cell growth (MTT) (PC-3 cells; 1 μg/ml f-adiponectin) | cell growth (MTT) at concentrations up to 1 μg/ml (PC-3 cells; serum-free) | concentration at which the inhibitory effect on cell growth saturated (PC-3 cells; MTT) | effect on DHT-stimulated cell growth (MTT) (LNCaP-FGC cells; 1 μg/ml f-adiponectin, 10 nM DHT) | effect on the conditioned medium stimulation of cell growth (MTT) (LNCaP-FGC cells; 1 μg/ml f-adiponectin) | effect on the doxorubicin suppression of cell growth (MTT) (LNCaP-FGC cells; 1 μg/ml f-adiponectin) | cell growth (MTT) at concentrations up to 1 μg/ml (LNCaP-FGC cells; serum-free) | concentration at which the inhibitory effect on cell growth saturated (LNCaP-FGC cells; MTT) | time of peak JNK activation after addition (JNK; DU145, PC-3, LNCaP-FGC and HepG2 cells, 1.0 μg/ml) | JNK activation (JNK; DU145, PC-3, LNCaP-FGC and HepG2 cells, 1.0 μg/ml, up to 60 minutes)
leptin: Recombinant human leptin purchased from R&D Systems; major adipose cytokine | increased living cells | did not influence | 15 min | 45 min | stimulated JNK activity | did not influence JNK activity | 15 min | stimulated JNK activity |  |  |  |  |  |  |  |  |  |  | 
f-adiponectin: Recombinant human full-length (non-proteolytic) adiponectin, about 30-kDa polypeptide; lot mainly HMW form (protein, UniProt Q15848 1-244, looked up, full-length, Recombinant human full-length (non-proteolytic) adiponectin, about 30-kDa polypeptide; lot mainly HMW form) MLLLGAVLLLLALPGHDQETTTQGPGVLLPLPKGACTGWMAGIPGHPGHNGAPGRDGRDGTPGEKGEKGDPGLIGPKGDIGETGVPGAEGPRGFPGIQGRKGEPGEGAYVYRSAFSVGLETYVTIPNMPIRFTKIFYNQQNHYDGSTGKFHCNIPGLYYFAYHITVYMKDVKVSLFKKDKAMLFTYDQYQENNVDQASGSVLLHLEVGDQVWLQVYGEGERNGLYADNDNDSTFTGFLLYHDTN |  |  |  |  |  |  |  |  | drastically suppressed | enhanced the doxorubicin suppression | inhibited cell growth in a dose-dependent manner | 1 µg/mL | significantly suppressed | drastically suppressed | enhanced the doxorubicin suppression | inhibited cell growth in a dose-dependent manner | 1 µg/mL | 10 min | further stimulated JNK activation
